For assay [1], the target named is Sindbis virus strain TR339 (virions; also structural proteins on infected Vero cells) (Sindbis virus).
Assay [2] shares this target. As to the kind of experiment: cell-based or functional assay.
Assay [3] deals with Mayaro virus (MAYV) structural proteins on infected cells (Mayaro virus). As to the kind of experiment: flow cytometry, surface staining of MAYV-infected Vero cells with serial dilutions, % binding to infected cells. (A flow cytometer gives signals particle by particle.)

The text below walks through data of US20240124553A1.

Usually EC50 (read off the curve) stands for the concentration at which the effect is half-maximal. Substance “Du-D1-Mo-D2 MXRA8-Fc (chimeric duck D1 - mouse D2 MXRA8, duck stalk) (from UniProt Q9DBV4 23-65; Q9DBV4 195-293) (Fc fusion)” registered a neutralisation of SINV-GFP infection; IC50 (read off the curve) in assay [1] of 0.3 µg/mL. The neutralization of SINV TR339 infection, EC50 against that of duck MXRA8-Fc in assay [2] is 3 fold. The same substance returned a concentration for a half-maximal effect (EC50 (read off the curve)) in assay [3] of 0.04 µg/mL.
